Measured values: article PMC10179162

Columns and labels:
[1] = biological target: chimeric HPV16 L1:P18I10 capsid protein (293F-derived, chromatography-purified L1:P18I10 VLP) (human papillomavirus type 16 | HIV-1) (UniProt P03101); assay: non-reducing SDS-PAGE (disulfide cross-linking); purified VLPs mixed with 2x Laemmli sample buffer with or without 20 mM DTT, 15 min at room temperature; 8-16% gel; blot probed with anti-HPV16 L1 mAb CAMVIR-1
[2] = biological target: chimeric HPV16 L1:P18I10 capsid protein (BEVS/IC-derived, ultracentrifugation-purified L1:P18I10 VLP) (human papillomavirus type 16 | HIV-1) (UniProt P03101); assay: as above

Substance | percent disulfide-bonded into oligomers (without DTT) [1] [%] | percent monomeric (with DTT) [1] [%] | percent disulfide-bonded into oligomers (without DTT) [2] [%] | percent monomeric (with DTT) [2] [%]
chimeric HPV16 L1:P18I10 capsid protein (293F-derived, chromatography-purified L1:P18I10 VLP) (from UniProt P03101 1-129; P03101 137-505) | > 99 | 80 |  | 
chimeric HPV16 L1:P18I10 capsid protein (BEVS/IC-derived, ultracentrifugation-purified L1:P18I10 VLP) (from UniProt P03101 1-129; P03101 137-505) |  |  | > 99 | 50
